The target of the assay is Insulin Receptor (Isoform B by the title of Table 1; 'the A isoform of the insulin receptor' by the text) (UniProt P06213). Kind of assay: competitive displacement of radiolabelled tracer; relative to wild-type human insulin.
Consider “GluA8 derivative of AspB10, 2F-PheB24, LysB28, ProB29-human insulin (T-0338) (ligand)”, for which the relative affinity came to 52%.
Under “GluA8 derivative of AspB10, ortho-fluoro-PheB24, GluB29-insulin (T-0339) (ligand)” stands 43%.
The value for “GluA8, GlyA21 derivative of AspB10, 2F-PheB24, GluB29-human insulin (T-0348) (ligand)” was 44%; that for “GlyA21 derivative of AspB10, 2F-PheB24, LysB28, ProB29-human insulin (T-0346) (ligand)” was 59%.
Under “GlyA21 derivative of AspB10, ortho-fluoro-PheB24, GluB29-insulin (T-0347) (ligand)” stands 42%.

Values taken from patent publication US20170304361A1.
